Test results taken from patent US6761878B2, “Pathological tissue detection and treatment employing targeted benzoindole optical agents” (Mallinckrodt, Inc., priority 2001, dated 2004).

Tests used:
[1] = test system: CA20948 rat tissues and organs; test: Fluorescence imaging of ex-vivo tissues and organs from CA20948 tumor bearing rat; type: in vivo; conditions: 27 hours post administration (FIG. 5)
Protocol: Individual organs were removed from the CA20948 rat which was injected with cytate 1 and were imaged.

[2] = test system: DSL 6/A (pancreatic) tumor; test: In vivo fluorescence imaging of DSL 6/A tumor bearing rats; design: species or system male Lewis rats; conditions: images at 2 and 30 minutes post administration, 0.5 ml of 0.42 mg/ml i.v.
Excerpt: (§1) A non-invasive in vivo fluorescence imaging apparatus was employed to assess the efficacy of indocyanine green (ICG) in three different rat tumor cell lines of the inventive contrast agents developed for tumor detection in animal models. A LaserMax Inc. laser diode of nominal wavelength 780 nm and nominal power of 40 mW was used. The detector was a Princeton Instruments model RTE/CCD-1317-K/2 CCD camera with a Rodenstock 10 mm F2 lens (stock #542.032.002.20) attached. An 830 nm […] (CVI Laser Corp., part #F10-830-4-2) was mounted in front of the CCD input lens, such that only emitted fluorescent light from the contrast agent was imaged.
(§2) Three tumor cell lines, DSL 6/A (pancreatic), Dunning R3327-H (prostate), and CA20948 (pancreatic), which are rich in somatostatin (SST-2) receptors were induced into male Lewis rats by solid implant technique in the left flank area (Achilefu et al., Invest. Radiology, 2000, pp. 479-485). Palpable masses were detected nine days post implant.
(§3) The animals were anesthetized with xylazine:ketamine:acepromazine (1.5:1.5:0.5^v/v) at 0.8 ml/kg via intramuscular injection. The left flank was shaved to expose the tumor and surrounding surface area. A 21-gauge butterfly needle equipped with a stopcock connected to two syringes containing heparinized saline was placed into the tail vein of the rat. […]

[3] = test system: Dunning R3327-H (prostate) tumor; test: In vivo fluorescence imaging of Dunning R3327-H tumor bearing rats; design: species or system male Lewis rats; conditions: images at 2 and 30 minutes post administration, 0.5 ml of 0.42 mg/ml i.v.
Excerpt: as §1, §2, §3

[4] = test system: CA20948 (pancreatic) tumor, rich in somatostatin (SST-2) receptors; test: In vivo fluorescence imaging of CA20948 tumor bearing rats; design: species or system male Lewis rats
Excerpt: as §1, §2, §3

Structure (SMILES) | uptake of the conjugate in adrenal glands ([1]; ex vivo organ) | uptake of the conjugate in heart ([1]; ex vivo organ) | uptake of the conjugate in liver ([1]; ex vivo organ) | uptake of the conjugate in pancreas ([1]; ex vivo organ) | uptake of the conjugate in spleen ([1]; ex vivo organ) | uptake of the conjugate in muscle ([1]; ex vivo tissue) | uptake of the conjugate in tumor tissue ([1]; ex vivo tissue) | perfusion of the agent into the tumor [2] | perfusion of the agent into the tumor [3] | non-specific localization into the tumor line ([4]; compared to the other two lines) | perfusion of the agent into the tumor ([4]; images at 2 and 30 minutes post administration, 0.5 ml of 0.42 mg/ml i.v.)
C[C@@H](O)[C@H](NC(=O)[C@@H]1CSSC[C@H](NC(=O)[C@@H](Cc2ccccc2)NC(=O)CC[N+]2=C(/C=C/C=C/C=C/C=C3/N(CCC(=O)O)c4ccc5ccccc5c4C3(C)C)C(C)(C)c3c2ccc2ccccc32)C(=O)N[C@@H](Cc2ccc(O)cc2)C(=O)N[C@H](Cc2c[nH]c3ccccc23)C(=O)N[C@@H](CCCCN)C(=O)N[C@@H]([C@@H](C)O)C(=O)N1)C(=O)O [Cytate 1, monooctreotate-bisethylcarboxymethylindocyanine dye] | High uptake | Significant lower uptake | Significant lower uptake | High uptake | Significant lower uptake | Significant lower uptake | High uptake | – | – | – | –
CC1(C)C(/C=C/C=C/C=C/C=C2\N(CCCCS(=O)(=O)O)c3ccc4ccccc4c3C2(C)C)=[N+](CCCCS(=O)(=O)[O-])c2ccc3ccccc3c21 [ICG, indocyanine green] | – | – | – | – | – | – | – | slow perfusion of the agent into the tumor over time | slow perfusion of the agent into the tumor over time | no non-specific localization | only a slight and transient perfusion that was cleared after only 30 minutes post injection
